This passage reports Km, kcat and kcat/Km results from publication PMC7105311, “Structure and function of Bs164 β-mannosidase from Bacteroides salyersiae the founding member of glycoside hydrolase family GH164” (The Journal of Biological Chemistry, 2019).

In general, Km refers to the substrate concentration at which the rate is half of its maximum. Usually kcat stands for the maximal rate divided by the concentration of active sites. By kcat/Km is commonly meant the second-order rate constant that governs catalysis at low substrate concentration.

Substrate in the series “purified protein”: Cc1cc(=O)oc2cc(O[C@@H]3O[C@H](CO)[C@@H](O)[C@H](O)[C@@H]3O)ccc12
The experiment in a line: purified protein. It is filed as biochemical, Bacteroides salyersiae. To be noted: 80 mM MES pH 5.5, 160 mM NaCl, 25 °C.

Substrate in series [1]: O=[N+]([O-])c1ccc(O[C@@H]2O[C@H](CO)[C@@H](O)[C@H](O)[C@@H]2O)cc1
Description: stopped assay, p-nitrophenol absorbance. It is filed as biochemical, Bacteroides salyersiae. To be noted: 80 mM MES pH 5.5, 160 mM NaCl, 25 °C. The source says: stopped assay, p-nitrophenol absorbance on Bs164

B1: Bs164 (Bacteroides salyersiae CL02T12C01) (protein)
chain: ERISKQSTPFVGAQIFIEPGQTQEQIEQWFKLLAESNMTTCRIRMFGKYMKTPSGTYDFTLFDRAFKLADKYHIKVYATLFPDTEFTDVGGFKFPHSREHQKEVEDYIKNVVSHFSQYKNLAAWVLINEPGTPNLPFNEPFTKERFSDWKKEHNFSEYNEKGYPVLNFEKENFIIDYHNWYLNWLANQVRLYDKQHDLHVNPHNVFKLSGLYDFPTWRTFLNSLGGSAHASWHFGYFPRKAYTVAMSANAELIRSGAGELPWLMTELQGGNNLYSGANPLCPTAEEIIQWLWINFATEAKGGIFWSFNARSTAAEAGEWAMINFKNKSSDRLIAAATIGKFITENVKMMSNIKTLNSGISILYNHESMWVEAAQTRGKLNGNGRSIGAVMCSPLSYFEALSETGLQANFKEIKEFDFSLNDYTDQVIILSHQIALDNKVIKQLESFVEKGGTLIADGLTGYYDYQAHSTVVSGFALENLFGSYPIEYKIKENLFSLDFEKDNYKLPAHLWKGTIETSKATPIMDKEGECIACINQYGKGKVFWIPSPIALGARESKDFSELSKLTVSLLPNKILNDNPHFDKHYKDVMMKSFKSNGTMYSLIINKSASVQTVDIVGGKGKAFILFANKNAHSTANKLTISPEETVIIKWKNN
notes: tag cut by 3C protease for kinetics, His6-tagged for crystals
Consider B1, for which, in “purified protein”, the Km is 1050 ± 80 µM, the turnover number (kcat) worked out at 1.8 ± 0.05 s⁻¹ and the kcat/Km came to 1700 ± 100 M⁻¹ s⁻¹. In addition, in series [1], the Michaelis constant (Km) was 3600 ± 800 µM, the kcat was 40 ± 3 s⁻¹ and the kcat/Km came out at 11000 ± 3000 M⁻¹ s⁻¹.
